These results are taken from paper PMC13466294, “Nucleolaron1511 and Nucleolaron1510 Facilitate Effective Intracellular Delivery of Azami Green Protein in HeLa Cells” (International Journal of Molecular Sciences, 2026).

The test system of data set [1] is HeLa cells. The experiment in a line: Cellular uptake of TAMRA-labeled Nuc1510 by fluorescence microscopy. It is filed as cell-based. To be noted: 5 µM in DMEM with 10% FBS, 1 h, 4 h or overnight (any incubation condition). As to the method:
To examine the intrinsic cell-penetrating ability of Nuc1510, HeLa cells were treated with TAMRA-labeled Nuc1510 prepared in medium supplemented with 10% FBS and analyzed by fluorescence microscopy at 1 h, 4 h, and overnight incubation time points.
HeLa cells were seeded at 2 × 10^4 cells per well in 8-well chamber slides (Millicell EZ Slide, Sigma-Aldrich, St. Louis, MO, USA; or µ-Slide 8 Well glass-bottom, ibidi, Gräfelfing, Germany) and allowed to adhere for 24 h. For assessment of intrinsic cell-penetrating ability, the culture medium was replaced with free TAMRA or TAMRA–Nuc1510 at 5 µM prepared in DMEM supplemented with 10% FBS. For assessment of cargo delivery, cells were treated with AG, AG–Nuc1511, AG–Nuc1510, or AG–TAT at 1, 2, or 3 µM prepared in DMEM with 10% FBS. All cargo delivery treatments were performed at 37 °C, and the highest concentration (3 µM) was additionally tested at 4 °C to assess the contribution of energy-dependent uptake pathways.
TAMRA–Nuc1510 samples were incubated for 1 h, 4 h, or overnight at 37 °C, whereas all AG–CPP samples were incubated overnight only. […] Fluorescence imaging was performed using a Keyence BZ-X800 (Keyence, Osaka, Japan) digital fluorescence microscope. […]

The subject of data set [2] is HeLa cells. The experiment in a line: Cell viability by MTT assay. The class given is cell-based. The conditions noted are these: 24 h. As to the method: To assess the cytotoxic potential of Nuc1511 and Nuc1510, HeLa cells were treated with AG–Nuc1511 or AG–Nuc1510 at concentrations of 1, 3, 5, and 10 µM for 24 h, and cell viability was quantified using the MTT assay (Figure 4). AG–Nuc1511 caused a gradual concentration-dependent decline in viability, reaching approximately 78% at 10 µM, which was statistically significant relative to the untreated control. […] Taken together, both fusion proteins were well tolerated at concentrations up to 5 µM, with cytotoxicity becoming apparent only at 10 µM.
HeLa cells were seeded at 1 × 10^4 cells per well in 96-well microplates (Nunc^TM MicroWell^TM; Thermo Fisher Scientific) and allowed to adhere overnight. The culture medium was replaced with AG–Nuc1511 or AG–Nuc1510 at 1, 3, 5, or 10 µM prepared in DMEM supplemented with 10% FBS. Cell viability was assessed by MTT assay. Following 24 h incubation, treatment solutions were removed and cells were washed with PBS. A mixture of 50 µL MTT solution (Fujifilm) (5 mg/mL in PBS) and 50 µL Opti-MEM I Reduced Serum Medium (Thermo Fisher Scientific) was added to each well, and plates were incubated at 37 °C for 3 h. The medium was then removed, and formazan crystals were dissolved by addition of 150 µL MTT solvent (4 mM HCl, 0.1% NP-40 substitute in isopropanol), followed by 30 min agitation on an orbital shaker protected from light, with additional pipetting to ensure complete dissolution. Absorbance was measured at 590 nm. All conditions were performed in triplicate.

Data set [3] relates to four cell lines. To be noted: CPP fused to EGFP, across four cell lines; ref 45 (Patel et al.); cited from earlier work. As to the method:
To quantify intracellular delivery, flow cytometry was performed following a stringent surface-depletion protocol. Cells were washed with an acidic glycine-NaCl solution to disrupt electrostatic interactions between surface-bound AG–CPP and the plasma membrane, then treated with trypsin, which both detaches cells from the culture plate and cleaves CPP sequences at arginine and lysine residues—amino acids abundant in all constructs tested—thereby eliminating residual surface-associated fluorescence. This protocol ensures that the measured fluorescence predominantly reflects int ...

For the substance “5(6)-carboxytetramethylrhodamine [Free TAMRA]”, the “Intracellular TAMRA fluorescence” value in data set [1] was “no detectable intracellular fluorescence”. For “MKDHLIHNHHKEEHAHAHNKDYDIPTTHHAHHSTENLYFQGSSGSSGMSVIKPEMKIKLCMRGTVNGHNFVIEGEGKGNPYEGTQILDLNVTEGAPLPFAYDILTTVFQYGNRAFTKYPADIQDYFKQTFPEGYHWERSMTYEDQGICTATSNISMRGDCFFYDIRFDGTNFPPNGPVMQKKTLKWEPSTEKMYVRDGVLKGDVNMALLLEGGGHYRCDFKTTYKAKKDVRLPDAHKVDHRIEILKHDKDYNKVKLYENAVARYSMLPSQAKGLQQGGTGGGGSKVLSRVVQLCREKLTRRRRSNRR [AG–Nuc1510, monomeric Azami Green genetically fused at its C-terminus via a linker to Nuc1510]”, the Reduction of viability entry in data set [2] (10 µM) is “approximately 50%”. In addition, the Effect on viability entry in data set [2] (1, 3, or 5 µM, Welch's t-test against untreated control) is recorded as “did not significantly reduce viability”.

For “MKDHLIHNHHKEEHAHAHNKDYDIPTTHHAHHSTENLYFQGSSGSSGMSVIKPEMKIKLCMRGTVNGHNFVIEGEGKGNPYEGTQILDLNVTEGAPLPFAYDILTTVFQYGNRAFTKYPADIQDYFKQTFPEGYHWERSMTYEDQGICTATSNISMRGDCFFYDIRFDGTNFPPNGPVMQKKTLKWEPSTEKMYVRDGVLKGDVNMALLLEGGGHYRCDFKTTYKAKKDVRLPDAHKVDHRIEILKHDKDYNKVKLYENAVARYSMLPSQAKGLQQGGTGGGGSTLKERCLQVVRSLVKKKRTLRKNDRKKR [AG–Nuc1511, monomeric Azami Green genetically fused at its C-terminus via a linker to Nuc1511]”, in data set [2] (10 µM, relative to untreated cells (100%), n = 3, 10 µM), the “Viability (%)” value is “approximately 78%”. Regarding Penetratin, the “Uptake efficiency relative to TAT” value in data set [3] is reported as “performed comparably to TAT”.
